Common to all, as to experiment: cell-based or functional assay
Assay [1] concerns the target T1, Human ANGPTL4(26-406)-FLAG-His6-Avi (human, UniProt Q9BY76 24-406, biotin on the C-terminal Avi tag in the biotinylated preparations (immobilised form in SET, ELISA and Octet)).
T1 sequence: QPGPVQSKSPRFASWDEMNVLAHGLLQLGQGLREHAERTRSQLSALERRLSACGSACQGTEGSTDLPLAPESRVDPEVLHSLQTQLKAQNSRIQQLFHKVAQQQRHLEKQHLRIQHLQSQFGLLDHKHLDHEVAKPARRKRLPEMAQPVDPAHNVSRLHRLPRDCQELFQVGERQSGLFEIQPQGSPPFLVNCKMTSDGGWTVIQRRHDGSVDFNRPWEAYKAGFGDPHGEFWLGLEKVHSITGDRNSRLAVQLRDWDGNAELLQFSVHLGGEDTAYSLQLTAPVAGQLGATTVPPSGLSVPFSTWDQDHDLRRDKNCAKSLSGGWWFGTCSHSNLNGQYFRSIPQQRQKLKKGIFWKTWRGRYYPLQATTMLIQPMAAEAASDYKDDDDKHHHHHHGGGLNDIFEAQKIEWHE

In assay [2] the target is T1, Human ANGPTL4(26-406)-FLAG-His6-Avi. The source holds these as a separate data set.
Assay [3] has the same target. The source holds these as a separate data set.

B1: MOR022765 (antibody, human IgG1, lambda, V domains shown)
VH: EVQLVQSGAEVKKPGESLKISCKGSGYSFSTYWISWVRQMPGKGLEWMGIIDPSSSDTRYSPSFQGQVTISADKSISTAYLQWSSLKASDTAMYYCARVYGYVYMDVWGQGTLVTVSS
VL: SYELTQPLSVSVALGQTARITCSGDNLGKKYAYWYQQKPGQAPVLVIYDKTKRPSGIPERFSGSNSGNTATLTISRAQAGDEADYYCASYDWYSSSYVFGGGTKLTVLG
notes: human IgG1
As for B1, in assay [1], the “Reversal of human ANGPTL4 inhibition of human LPL EC50” value is 3 nM.

B2: MOR021792 (antibody, human IgG1, lambda, V domains shown)
VH: QVQLLESGGGLVQPGGSLRLSCAASGFTFSDYAMDWVRQAPGKGLEWVSKISYDGSYTYYADSVKGRFTISRDNSKNTLYLQMNSLRAEDTAVYYCARPSMSYYIIPAGFDVWGQGTLVTVSS
VL: DIELTQPPSVSVSPGQTASITCSGDALGVKRASWYQQKPGQAPVLVIYKDNNRPSGIPERFSGSNSGNTATLTISGTQAEDEADYYCSVRTWSMNLYVFGGGTKLTVLG
For B2, in assay [2], the “EC50 (read off the curve) [1(A]” value lay in the range of 1 to 2 nM.

B3: MOR021798 (antibody, human IgG1, lambda, V domains shown)
VH: QVQLLESGGGLVQPGGSLRLSCAASGFTFSDYALHWVRQAPGKGLEWVSRISYMGSSTYYADSVKGRFTISRDNSKNTLYLQMNSLRAEDTAVYYCAREHYYSSPMGGVAVDNWGQGTLVTVSS
VL: DIVLTQPPSVSGAPGQRVTISCSGSSSNIGYNTVSWYQQLPGTAPKLLIYSNNIRPSGVPDRFSGSKSGTSASLAITGLQAEDEADYYCSSWDFLIKSLVFGGGTKLTVLG
notes: human IgG1
Turning to B3, in assay [3], the “EC50 (read off the curve) [1(C]” value was roughly 3 nM.

(Values after US20160108110A1 (Novartis, published 2016).)
